Molecular target: T1, Abp1 SH3 (ABP1_YEAST), P15891
T1 chain: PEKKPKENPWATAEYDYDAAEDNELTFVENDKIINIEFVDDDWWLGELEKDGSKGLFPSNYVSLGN
Assay: SPOT array

Binder | normalised SPOT signal, Boehringer light units (BLU); mean over the file's lines of this peptide
QEYGGQKPELSKP [YHL032C 439-451] | 58.1
QFIKAGVPIGRKP [YGR112W 321-333] | 7910
QFMSAGLPQVAKP [YLR304C 105-117] | 140
QFRDDSLPPKSKP [YIL091C 357-369] | 196
QGLKLTVPKKIKP [YHR031C 197-209] | 1000
QHNTSSSRRGPGRP [YDR310C 197-210] | 579
QIGSVATSGIPARP [YLR138W 520-533] | 66.6
QIIETPYPPTQKP [YJL208C 31-43] | 55
QILLPTNPTLDKP [YNR010W 13-25] | 135
QIREDQQEVPPQRP [YMR160W 21-34] | 74.4
QISWNGIPKIHRP [YOR070C 275-287] | 1750
QKNVIHRAARPTRP [YLR029C 32-45] | 253
QKNYVYGRQDPKKP [YNL137C 407-420] | 147
QLATSLYPDIYKP [YFL007W 1286-1298] | 86.3
QLDMDMYPYKLKP [YLR375W 257-269] | 57.3
QLPNPAMPLLHRP [YER169W 386-398] | 160
QLQKKNDRPSPLKP [YKL101W 857-870] | 347
QLRNELIKQGPKRP [YMR072W 33-46] | 212
QLTTEVWRKVPMKP [YCR032W 1846-1859] | 897
QMFLSIQPQEARP [YPL125W 1020-1032] | 310

Binder | normalised SPOT signal, Boehringer light units (BLU); mean over the file's lines of this peptide
QMQIPKYENKPFKP [YBR073W 34-47] | 316
QMVYIVDPSKRRP [YHR196W 194-206] | 445
QNDLPTGYYEPMKP [YLL016W 403-416] | 15.1
QNLPRHDADFPPRP [YHR030C 429-442] | 22
QNSERAAQEFPNKP [YGR116W 858-871] | 75.2
QPPTGILPLAPLRP [YPL085W 911-924] | 63.4
QPTERDEYKQPFKP [YPR175W 148-161] | 19.8
QPVIVNTPHLKKP [YHR064C 433-445] | 83.3
QQEQNTPPLPPKP [YCL008C 172-184] | 16.1
QQVPMPILQQPNRP [YNL278W 947-960] | 113
QRALAKDLIVPRRP [YGL099W 127-140] | 42100
QRFNNSNNSIPRKP [YPL032C 537-550] | 627
QRGQQGYPRQPQRP [YDR171W 23-36] | 333
QRKSLRRPTLSKP [YOR264W 128-140] | 43
QSMISTRSTPPARP [YHR073W 189-202] | 3390
QSQLTSIAAVPPKP [YDL030W 480-493] | 92.9
QSSTTTAAATPTKP [YHL004W 115-128] | 160
QSTKKAPPPVVKP [YBR108W 772-784] | 4860
QSTPQTMRQAPKRP [YNL298W 490-503] | 7180
QTATTLSPAKARP [YOR178C 4-16] | 122

Binder | normalised SPOT signal, Boehringer light units (BLU); mean over the file's lines of this peptide
QTPKVEKTEKPKKP [YLR287C-A 17-30] | 33.2
QVADVQWSPHPAKP [YDR128W 69-82] | 89.6
QVSGTRQSPIPKKP [YML007W 308-321] | 172
QVEPTLDEELPKRP [YDR422C 627-640] | 58.1
QVHRHEPPVTSRP [YDL036C 175-187] | 133
QVILTRVPHDIRP [YDR414C 52-64] | 116
QVNSLTLPIWVRP [YNL169C 143-155] | 215
QWGVIIINKMPLKP [YDR434W 319-332] | 62.9
QYDEIHIPAPSKP [YER172C 459-471] | 40.6
RAAKLAAPENEKP [YOL040C 61-73] | 4.4
RAIYTITPETSRP [YIL080W 1034-1046] | 49.8
RAQNSYQPMYQRP [YPL042C 7-19] | 696
RATPVSTPVISKP [YHL007C 201-213] | 61.6
RAVSDFVPGFAKP [YDR122W 674-686] | 198
RAVYTITPETSRP [YGR109W-B 1008-1020] | 114
RDESSILPKNYRP [YDR365C 307-319] | 97.6
RDPKTREPLQPRP [YGR084C 80-92] | 297
RDRGVLQEIRPAKP [YMR302C 753-766] | 51

Source: article PMC314469, “Protein Interaction Networks by Proteome Peptide Scanning” (PLoS Biology, 2004)
